Test results taken from the supplement of paper PMC12042874.
± gives the uncertainty stated by the source.

Assay: amyloid nucleation score (Sup35N fusion, yeast selection) (log enrichment); library NNK3; higher = more nucleation; inactive = no reads after selection
Method in brief: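 The nucleation score is the DiMSum log enrichment of output over input reads, centred on the mode score of non-aggregating sequences. Only sequences with 100 or more input reads were scored, using Illumina sequencing of input and output plasmid inserts. Psi-negative yeast expressing Sup35N fused to peptides of 20 random codons were induced 24 hours with 100 μM copper sulfate and grown 7 days at 30°C on medium lacking adenine and uracil.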

Amyloid nucleation score, 0.071 ± 0.38:
MFYVVLSYK

Amyloid nucleation score, 0.024 ± 0.96:
LYFNRRWWPMRWVRDSPRPS

Amyloid nucleation score, 1.01 ± 0.19:
MMADDVSLICGCGRQ

Amyloid nucleation score, 2.77 ± 0.058:
MFSLNVYMGDTIVVHQGFTD

Amyloid nucleation score, -1.07 ± 1.1:
MSGSRWRSTNFTCNNLWFDR

Amyloid nucleation score, 0.996 ± 0.12:
LVVLLFYFCYSHGYDEKVQW

Amyloid nucleation score, -0.994 ± 2.5:
LVDVDVHR

Amyloid nucleation score, 0.312 ± 0.54:
LTRDVCFN

Amyloid nucleation score, 0.581 ± 0.16:
MRRSMAVAMNRSVLYDEC

Amyloid nucleation score, 0.18 ± 0.47:
MYFSFLW

Amyloid nucleation score, 2.7 ± 0.049:
MILNINVMYYFMYEGKIVMP

Amyloid nucleation score, 0.131 ± 0.24:
MIRYSVQ

Amyloid nucleation score, 0.136 ± 0.39:
LWEVRSEPDPDSSNKLLSRE

Amyloid nucleation score, 0.684 ± 0.13:
MQYLIYPTWLVIELNC

Amyloid nucleation score, 1.6 ± 0.097:
MRLMVWESLR

Amyloid nucleation score, 2.33 ± 0.089:
MVIGNVCFIIYGSFNEE

Amyloid nucleation score, inactive:
LTNGRNTYFLLSRYYFGTTS, LTNSYLDMLRM, LTSMI, LTVLFTVCWVGTRAYGLIGG, LTYTYGVGVMIGIITHRLVC, LVALVRECT, LVFPPAY, LVGHEFTAGSNYDSDLGTV, LVPVLNGVLSKLRSFNFHSG, LVSLWLDRD, LVVLIFYYV, LVVSVRTYPTGCCPYKMLNQ, LVYNQVVHRFLTLVFLSYMS, LVYNTDQSTRYAMTDYDADL, LWDALDKDSESVIDMGQNEG, LWDRVNCFYFRDEGDELEER, LWGKNWIDVAECIVCLPQAS, LWLFIAY, LWNVLHDNSHCSLGSTPLGQ, LWSWDDIHPFCLILLLTRCP, LWWCTLYSILYGTLSTYSCS, LWYFRFNFTAYNYFLWYDTS, LYDTDSCLSSYCSPFRHPRY, LYGISL, LYGTFVNSCQRFNLLDV, LYLNEYELTLEAKRDYMNMR, LYLVKVD, LYLYI, LYMNATLSYCGTYCMVTQMV, LYMVSYG, LYNVMGLALASLAISNLRDK, LYNVYGSRA, LYRCDDGCSIRTVRDYWWVS, LYRVVSLSYAVCLILSRCFT, LYTNLTTVDLHCVKNA, MACKLSTRKSSNWGKHLLCY, MAHAFDTR, MAMDCLISTALVLLVKYASV, MASIVFFCMPSETNFVV, MCYALMRTTWCGKLKIVLSG, MCYVVNAHGVASQ, MDDFLYAVPMWELWKVLRDE, MDRIYLHISVEVSASFMSDA, MEGFSMIIRDAWKFTCVVEW, MEVKNSRLDSVAKYQSISFL, MFLLMNKV, MFLQSGDFPM, MFRHVWVTNEVLSCGYIVTG, MFSPQSNRFSSFGNNSITGH, MGIQKTDRWRLWYYYWMREN, MGKETRVA, MGKTRLADLRVYRTVWLFSR, MGNRNDSNLTRCWESTLVVK, MGQAEGFLNGSSEQVEPTFA, MGVICWYLRACNPQPGSNCK, MGWALIGSQSPYVCHNMFVR, MHAMNVMAGVRLALVYVRSN, MHANLLGVQSVLLDRVEVMW, MHLVYQDILSYIAWSRVPLR, MIHAFGFLMMCLVQSYLELF, MILLLGLDRKHSSGESKALI, MKFFVNLAYIFFRFFSLRLL, MKFVPHYEGVYCL, MKGQLARSSDLSRLDVNCMG, MKTSNYMVRQCAGIPASTNR, MLARHCQQGGRDHPWLGSVL, MLNAIGCLSWSQFPESLLLG, MLVATL, MLWCLSVSIDFYGGDNRMLT, MLYFALNLC, MMGTSWDWRYRYLRLRGEEC, MMMQLNGVHMV, MMVIRQYFMVRVEPVHVSSG, MMVMWD, MMWDL, MNFSEH, MNGNGRFLVERRMLGSKKSV, MNTVGLIDLHSGAPLSINRT, MPMGGRYSAKAIVLVQKKDW, MPRSCSDYACAV, MRGFFCRIH, MRMNVTIRFVMFNTGLRMYG, MRRGEDCVV, MRRVGIWYVRR, MRTMLVFVRGFKFFLPDLLI, MRTNTPIFLVLGKIS, MRVKGLIRWWETGCEKKSTA, MRYGKLDLSRVYLQCDRLGR, MRYINEKCVT, MSEKASSEVKINRDAGLGAF, MSFEYSPQGSILYGPSRNIY, MSFMTDLNPTFLFMLIG, MSGVDYLTRLFVYTNESDAV, MSICFDPWTRPKCGVYCRCS, MSNMWKEYALALVVGLSFRL, MSRGGYWSKVR, MSSSSAFD, MSTVRHVRWRQGQGKMRGRK, MTAGEIDRLLYVS, MTCSQSECARVIVSRCHVWP, MTESNGGFPG, MTSITVDYDNLDYRIAMITW, MVCLDWVPSNVMTLGS, MVCWANKHWYSSHLLYDSVY, MVIAPGEKTNNLSSAHRWSN, MVLKLNESSMIFKDTTYP, MVLPLSYKQSCFQLCKFLDN, MVMPGMFGSLRREWHSFFRM, MVSNNGFIRSLVENPTPIQD, MWCMGNSVGSVWSRCTYMRY, MWSHFFSQYSGWRFYTKSRF, MWVLSV, MWVQEYKTNNGYSLA, MYFFSHPPSNRRE, MYPYAITVTGMFLLVPSCLD, MYQMSTVKRRRVGGSNDMCV, MYRLIVYT, MYWTNRHLQNIFWVKRNCGM

Amyloid nucleation score, -0.344 ± 1:
MVGFLDTFSRIAVRCSIDRW

Amyloid nucleation score, 2.5 ± 0.068:
MINCISNMVISIGSKRTYPS

Amyloid nucleation score, 0.883 ± 0.15:
LVMHMRLAWRECDHVSKQMR

Amyloid nucleation score, 0.876 ± 0.083:
MLNSLFAMNTILKW

Amyloid nucleation score, 0.315 ± 0.29:
LYVVCKLSHRPHNAWEKRVP

Amyloid nucleation score, 1.28 ± 0.085:
MKFRLTSSRQSDEAHFMWLT

Amyloid nucleation score, 0.108 ± 0.67:
LVYLSASFVW

Amyloid nucleation score, -0.754 ± 0.96:
MFRVMSSVKLLS

Amyloid nucleation score, 0.028 ± 0.65:
LVHIGFWCEVVQPLSCTDTS

Amyloid nucleation score, 0.93 ± 0.17:
MFLGNVMTILIEMGFQKALT

Amyloid nucleation score, 0.512 ± 0.16:
MYLNNFAWRVTVWNIFVHAL

Amyloid nucleation score, 1.65 ± 0.09:
MESDCQRDHNFIRIKIKIGE

Amyloid nucleation score, 0.485 ± 0.21:
MVMQIYIDDRPSMKVLYSEM

Amyloid nucleation score, 1.49 ± 0.12:
MHLEYGVFIDARATYML

Amyloid nucleation score, 0.807 ± 0.18:
MCNFCQLFFTLLITSLFKLG

Amyloid nucleation score, -0.074 ± 0.51:
MPYSFIMTVTYSLQYTQWSL

Amyloid nucleation score, -0.787 ± 2.4:
MMELQVAQLHTEGDRLKSRR

Amyloid nucleation score, 0.902 ± 0.14:
MRCGRIDGDFGFAPRLRGTM

Amyloid nucleation score, 1 ± 0.22:
MDITWIKVVHNIHQTVRSKF

Amyloid nucleation score, 0.175 ± 0.37:
MWVFKMRTGQYRASSRSLHR

Amyloid nucleation score, -0.545 ± 0.96:
MNEGQSYYKVVITPELLAAR

Amyloid nucleation score, -0.563 ± 0.84:
MLLIVTSCYISAPNAVSPGW

Amyloid nucleation score, 0.545 ± 0.13:
LVIVFCMVFLTFIF

Amyloid nucleation score, 1.33 ± 0.11:
MWGVCSFFAFPHIIFM

Amyloid nucleation score, -0.076 ± 0.98:
LWRIILWPFVTWSDMMFFQF

Amyloid nucleation score, 0.086 ± 0.31:
LWFPVEGGYPPSDVKQKHIS
